Data published in patent US20240316154A1 (Eli Lilly, published 2024).

What was measured:
Cow serum albumin = target: T1, Cow serum albumin (cow, UniProt P02769 25-607); test: SPR, SA on chip, 1:1 fit, 25 C
T1 construct: bought; immobilised on a CM5 chip by amine coupling; also called Cow SA
Method: (§1) Human SA is obtained from Sigma Aldrich (Cat. No. A8763). […] Mouse SA is obtained from Sigma Aldrich (Cat. No. A3139). Rat SA is obtained from Sigma Aldrich (Cat. No. A4538). Pig SA is obtained from Sigma Aldrich (Cat. No. A4414). […] Cow SA is obtained from Sigma Aldrich (Cat. No. A7030). […] Excess reactive groups on the surfaces (flow cell 1 and 2) are deactivated by injecting 70 μl of 1 M Ethanolamine hydrochloride-NaOH pH 8.5.
(§2) 180 μl of sample are individually injected sequentially across the immobilized SAs on the chip's surface and dissociated for 600 sec at 60 μl/min flow rate at 25° C.

Mouse serum albumin = target: T2, Mouse serum albumin (mouse, UniProt P07724 25-608); test: SPR, SA on chip, 1:1 fit, 25 C
T2 construct: bought; immobilised on a CM5 chip by amine coupling; also called Mouse SA
Method: as §1, §2

Rat serum albumin = target: T3, Rat serum albumin (rat, UniProt P02770 25-608); test: SPR, SA on chip, 1:1 fit, 25 C
T3 construct: bought; immobilised on a CM5 chip by amine coupling; also called Rat SA
Method: as §1, §2

Dog serum albumin = target: T4, Dog serum albumin (dog, UniProt P49822 25-608); test: SPR, SA on chip, 1:1 fit, 25 C
T4 construct: bought; immobilised on a CM5 chip by amine coupling; also called Dog SA
Method: as §1, §2

Pig serum albumin = target: T5, Pig serum albumin (pig, UniProt P08835 25-607); test: SPR, SA on chip, 1:1 fit, 25 C
T5 construct: bought; immobilised on a CM5 chip by amine coupling; also called Pig SA
Method: as §1, §2

Human serum albumin = target: T6, Human serum albumin (human, UniProt P02768 25-609); test: SPR, SA on chip, 1:1 fit, 25 C
T6 construct: bought; immobilised on a CM5 chip by amine coupling; also called Human SA
Method: as §1, §2

[1] = target: T7, Cynomolgus monkey serum albumin (cynomolgus monkey, UniProt A2V9Z4 25-608); test: SPR, SA on chip, 1:1 fit, 25 C
T7 construct: bought; immobilised on a CM5 chip by amine coupling; also called Cyno SA
Method: as §1, §2

Rabbit serum albumin = target: T8, Rabbit serum albumin (rabbit, UniProt P49065 25-608); test: SPR, SA on chip, 25 C
T8 construct: bought; immobilised on a CM5 chip by amine coupling; also called Rabbit SA
Method: as §1, §2

B1: VHH-based fusion of Example 8, VHH fusion 8 (GLP1-(G4Q)5-MC6.1C22.43) (other)
chain: HGEGTFTSDVSSYLEEQAAKEFIAWLVKGGGGGGGQGGGGQGGGGQGGGGQGGGGQEVQLLESGGGLVQPGGSLRLSCAASGRYIDETAVAWFRQAPGKEREFVAGIGGGVDITYYADSVKGRFTISRDNSKNTLYLQMNSLRPEDTAVYYCAARPGRPLITSKVADLYPYWGQGTLVTVSSPP
notes: also called Compound 8; GLP-1-VHH fusion
Question: Which results are given for B1?
Answer: Kd (Cow serum albumin): 120 nM; koff (Cow serum albumin): 0.093 s⁻¹; kon (Cow serum albumin): 800000 M⁻¹ s⁻¹; Kd (Mouse serum albumin): 18 nM; koff (Mouse serum albumin): 0.01 s⁻¹; kon (Mouse serum albumin): 560000 M⁻¹ s⁻¹; Kd (Rat serum albumin): 11 nM; koff (Rat serum albumin): 0.0071 s⁻¹; kon (Rat serum albumin): 660000 M⁻¹ s⁻¹; Kd (Dog serum albumin): 5.4 nM; koff (Dog serum albumin): 0.0038 s⁻¹; kon (Dog serum albumin): 710000 M⁻¹ s⁻¹; Kd (Pig serum albumin): 27 nM; koff (Pig serum albumin): 0.013 s⁻¹; kon (Pig serum albumin): 490000 M⁻¹ s⁻¹; Kd (Human serum albumin): 0.15 nM; koff (Human serum albumin): 0.00011 s⁻¹; kon (Human serum albumin): 720000 M⁻¹ s⁻¹; Kd [1]: 0.96 nM; koff [1]: 0.00087 s⁻¹; kon [1]: 910000 M⁻¹ s⁻¹; binding result (Rabbit serum albumin): no binding (tested: up to 1000 nM)
